US11884710B2, “Peptide compounds and methods of use in wound healing” (priority 2013, dated 2024)

What was measured:
[1] = test system: PKCα; assay: Immunofluorescence for PKCα in HCEC monolayers; assay type: cell-based, human; conditions: CAP37 500 ng/ml; 15 minutes
Experimental: HCEC monolayers were grown to confluency and were scratched with a 10 μl pipette tip or left unscratched, and then the monolayers were treated for 15 minutes with (A-B) buffer, (C-D) PMA (1 μM), (E-F) 250 ng/ml CAP37, and (G-J) 500 ng/ml CAP37. Cells were stained for PKCδ (250 ng/ml; (A-H)), and PKCα (1 μg/ml; (I-J)) and detected using immunofluorescence (4 μg/ml, ALEXA FLUOR® 488 dye (Life Technologies Corp., Grand Island, N.Y.)). […] Scratched monolayers that were treated for 18 hours with CAP37 (250 ng/ml; (L)) or left untreated (K) were stained for PKCδ. […] Scale bars, 20 μm.
Immunofluorescence: HCECs and primary HCECs were cultured on Lab-Tek® II glass chamber slides (Nunc, Rochester, N.Y.) and starved overnight in basal media. For wounding studies, monolayers were scratched with a 10 μl pipette tip or left unscratched and treated with 1 μM phorbol 12-myristate 13-acetate (PMA, Sigma-Aldrich), rCAP37 (25-500 ng/ml), or basal KSFM (Gibco) for 15 minutes. After treatment, the cells were fixed in 4% (v/v) formaldehyde solution (Thermo, Rockford, Ill.) in PBS (Gibco) for 20 minutes at room temperature followed by permeabilization in 0.5% TRITON™-X 100 (Mallinckrodt, St. Louis, Mo.) in PBS for 10 minutes. Remaining formaldehyde was quenched with 0.05 M ammonium chloride (NH4Cl, Sigma-Aldrich, St. Louis, Mo.) in PBS for 10 minutes. […]

[2] = test system: PKCδ; assay: PKCδ siRNA knockdown and CAP37-induced corneal wound healing in vivo; set-up: species or system mouse; conditions: CAP37 250 ng/ml
Experimental: (A) siRNA directed against PKCδ or scrambled siRNA was injected into the mouse conjunctiva. The mouse corneal epithelium was removed with the AlgerBrush II. Corneal abrasions were treated at 0 and 16 hours with rCAP37 (250 ng/ml), or were left untreated (saline vehicle control). Wound healing was monitored at 0, 16, and 24 hours using fluorescein staining. Data are represented as the percentage of wound closure and are expressed as mean±SEM. The data are representative of at least 9 mice per group. *P<0.05 by unpaired t-test as compared to vehicle (normal saline) treated controls. The efficiency of the PKCδ knockdown in each cornea was confirmed by Western blot analysis 24 hours post-injection and determined in comparison to the scrambled siRNA-injected corneas. Data are representative of 22 experimental samples and are expressed as mean±SEM (***P<0.0005 by unpaired t-test). […]
siRNA transfection and gene silencing: Stealth RNAi™ (10 μM, Ambion®, Grand Island, N.Y.) directed against PKCδ or Stealth RNAi™ siRNA Negative Control Hi GC (10 μM, Ambion®) was delivered into the mouse conjunctiva through a 5 μl subconjunctival injection using a 33-gauge needle (Hamilton®, Reno, Nev.). […] Wound closure was quantitated at 16 and 24 hours as described. […]
Protein (20 μg) from each sample of corneal homogenate was analyzed by electrophoresis on a 10% SDS-PAGE gel. […]

B1: CAP37: cationic antimicrobial protein of Mr 37 kDa; recombinant CAP37 produced in human embryonic kidney (HEK) 293 cells (protein)
chain: IVGGRKARPRQFPFLASIQNQGRHFCGGALIHARFVMTAASCFQSQNPGVSTVVLGAYDLRRRERQSRQTFSISSMSENGYDPQQNLNDLMLLQLDREANLTSSVTILPLPLQNATVEAGTRCQVAGWGSQRSGGRLSRFPRFVNVTVTPEDQCRPNNVCTGVLTRRGGICNGDGGTPLVCEGLAHGVASFSLGPCGRGPDFFTRVALFRDWIDGVLNNPGP
- PKCα staining, in words [1]: no increase in PKCα staining
- wound healing in response to CAP37, in words ([2]; corneas transfected with PKCδ siRNA, 16 or 24 hours): no significant increase in wound healing
- wound closure after CAP37, in words ([2]; corneas transfected with scrambled siRNA, 24 hours): expected increase in wound closure
